Data from the supplement of paper PMC11246515.
± gives the standard deviation of the averaged measurements.

Experiment: total protein half-life in vivo (active degradation + dilution); higher = more stable protein
[1] = E. coli NCM3722 delta-clpP delta-lon delta-hslV, growth: N-lim chemostat, doubling time 6 h
[2] = E. coli NCM3722 delta-clpP, growth: N-lim chemostat, doubling time 6 h
[3] = E. coli NCM3722 delta-hslV, growth: N-lim chemostat, doubling time 6 h
[4] = E. coli NCM3722 delta-smpB, growth: N-lim chemostat, doubling time 6 h
[5] = wild type E. coli NCM3722, growth: C-lim chemostat, doubling time 3 h
[6] = wild type E. coli NCM3722, growth: C-lim chemostat, doubling time 6 h
[7] = wild type E. coli NCM3722, growth: C-lim chemostat, doubling time 12 h
[8] = wild type E. coli NCM3722, growth: N-lim chemostat, doubling time 6 h
[9] = wild type E. coli NCM3722, growth: N-lim chemostat, doubling time 12 h
[10] = wild type E. coli NCM3722, growth: P-lim chemostat, doubling time 6 h
[11] = wild type E. coli NCM3722, growth: P-lim chemostat, doubling time 12 h
[12] = E. coli NCM3722 delta-lon, growth: N-lim chemostat, doubling time 6 h

Sequence: MSGAFNNDGRGISPLIATSWERCNKLMKRETWNVPHQAQGVTFASIYRRKKAMLTLGQAALEDAWEYMAPRECALFILDETACILSRNGDPQTLQQLSALGFNDGTYCAEGIIGTCALSLAAISGQAVKTMADQHFKQVLWNWAFCATPLFDSKGRLTGTIALACPVEQTTAADLPLTLAIAREVGNLLLTDSLLAETNRHLNQLNALLESMDDGVISWDEQGNLQFINAQAARVLRLDATASQGRAITELLTLPAVLQQAIKQAHPLKHVEATFESQHQFIDAVITLKPIIETQGTSFILLLHPVEQMRQLMTSQLGKVSHTFAHMPQDDPQTRRLIHFGRQAARSSFPVLLCGEEGVGKALLSQAIHNESERAAGPYIAVNCELYGDAALAEEFIGGDRTDNENGRLSRLELAHGGTLFLEKIEYLAVELQSALLQVIKQGVITRLDARRLIPIDVKVIATTTADLAMLVEQNRFSRQLYYALHAFEITIPPLRMRRGSIPALVNNKLRSLEKRFSTRLKIDDDALARLVSCAWPGNDFELYSVIENLALSSDNGRIRVSDLPEHLFTEQATDDVSATRLSTSLSFAEVEKEAIINAAQVTGGRIQEMSALLGIGRTTLWRKMKQHGIDAGQFKRRV
- total protein half-life in vivo [1]: 6.1 ± 0.41 h
- total protein half-life in vivo [2]: 4.96 h
- total protein half-life in vivo [3]: 3.96 h
- total protein half-life in vivo [4]: 4.08 ± 0.059 h
- total protein half-life in vivo [5]: 2.56 ± 0.055 h
- total protein half-life in vivo [6]: 4.31 ± 1 h
- total protein half-life in vivo [7]: 9.42 ± 0.77 h
- total protein half-life in vivo [8]: 4.53 ± 0.17 h
- total protein half-life in vivo [9]: 8.2 ± 0.45 h
- total protein half-life in vivo [10]: 4.11 ± 0.61 h
- total protein half-life in vivo [11]: 7.3 ± 0.38 h

Sequence: MKKLTVAALAVTTLLSGSAFAHEAGEFFMRAGSATVRPTEGAGGTLGSLGGFSVTNNTQLGLTFTYMATDNIGVELLAATPFRHKIGTRATGDIATVHHLPPTLMAQWYFGDASSKFRPYVGAGINYTTFFDNGFNDHGKEAGLSDLSLKDSWGAAGQVGVDYLINRDWLVNMSVWYMDIDTTANYKLGGAQQHDSVRLDPWVFMFSAGYRF [P0A915]
- total protein half-life in vivo [1]: 6.65 ± 0.21 h
- total protein half-life in vivo [3]: 6.45 ± 0.39 h
- total protein half-life in vivo [4]: 6.21 ± 1.9 h
- total protein half-life in vivo [5]: 3.53 ± 0.14 h
- total protein half-life in vivo [6]: 7.52 ± 0.61 h
- total protein half-life in vivo [7]: 12.6 ± 1.5 h
- total protein half-life in vivo [8]: 7.26 h
- total protein half-life in vivo [9]: > 16 h
- total protein half-life in vivo [10]: 6.15 h
- total protein half-life in vivo [11]: 15.44 ± 0.068 h

Sequence: MVPVVALVGRPNVGKSTLFNRLTRTRDALVADFPGLTRDRKYGRAEIEGREFICIDTGGIDGTEDGVETRMAEQSLLAIEEADVVLFMVDARAGLMPADEAIAKHLRSREKPTFLVANKTDGLDPDQAVVDFYSLGLGEIYPIAASHGRGVLSLLEHVLLPWMEDLAPQEEVDEDAEYWAQFEAEENGEEEEEDDFDPQSLPIKLAIVGRPNVGKSTLTNRILGEERVVVYDMPGTTRDSIYIPMERDGREYVLIDTAGVRKRGKITDAVEKFSVIKTLQAIEDANVVMLVIDAREGISDQDLSLLGFILNSGRSLVIVVNKWDGLSQEVKEQVKETLDFRLGFIDFARVHFISALHGSGVGNLFESVREAYDSSTRRVGTSMLTRIMTMAVEDHQPPLVRGRRVKLKYAHAGGYNPPIVVIHGNQVKDLPDSYKRYLMNYFRKSLDVMGSPIRIQFKEGENPYANKRNTLTPTQMRKRKRLMKHIKKNK [P0A6P5]
- total protein half-life in vivo [1]: 5.18 ± 0.36 h
- total protein half-life in vivo [2]: 5.53 ± 0.68 h
- total protein half-life in vivo [3]: 4.51 ± 0.067 h
- total protein half-life in vivo [12]: 4.88 ± 0.11 h
- total protein half-life in vivo [4]: 4.59 ± 0.29 h
- total protein half-life in vivo [5]: 3.2 ± 0.2 h
- total protein half-life in vivo [6]: 5.55 ± 0.11 h
- total protein half-life in vivo [7]: 10.3 ± 0.65 h
- total protein half-life in vivo [8]: 4.6 ± 0.16 h
- total protein half-life in vivo [9]: 7.38 ± 0.25 h
- total protein half-life in vivo [10]: 5.43 ± 0.67 h
- total protein half-life in vivo [11]: 10.8 ± 0.39 h

Sequence: MKPENKLPVLDLISAEMKTVVNTLQPDLPPWPATGTIAEQRQYYTLERRFWNAGAPEMATRAYMVPTKYGQVETRLFCPQPDSPATLFYLHGGGFILGNLDTHDRIMRLLASYSQCTVIGIDYTLSPEARFPQAIEEIVAACCYFHQQAEDYQINMSRIGFAGDSAGAMLALASALWLRDKQIDCGKVAGVLLWYGLYGLRDSVTRRLLGGVWDGLTQQDLQMYEEAYLSNDADRESPYYCLFNNDLTREVPPCFIAGAEFDPLLDDSRLLYQTLAAHQQPCEFKLYPGTLHAFLHYSRMMKTADEALRDGAQFFTAQL
- total protein half-life in vivo [5]: 3.18 ± 0.17 h
- total protein half-life in vivo [6]: 5.349 ± 0.029 h
- total protein half-life in vivo [7]: 8.02 ± 2.3 h
- total protein half-life in vivo [9]: 11.6 h
- total protein half-life in vivo [10]: 5.69 ± 1.1 h
- total protein half-life in vivo [11]: 10.9 ± 1.4 h

Sequence: MKALARFGKAFGGYKMIDVPQPMCGPEDVVIEIKAAAICGADMKHYNVDSGSDEFNSIRGHEFAGCIAQVGEKVKDWKVGQRVVSDNSGHVCGVCPACEQGDFLCCTEKVNLGLDNNTWGGGFSKYCLVPGEILKIHRHALWEIPDGVDYEDAAVLDPICNAYKSIAQQSKFLPGQDVVVIGTGPLGLFSVQMARIMGAVNIVVVGLQEDVAVRFPVAKELGATAVVNGSTEDVVARCQQICGKDNLGLVIECSGANIALKQAIEMLRPNGEVVRVGMGFKPLDFSINDITAWNKSIIGHMAYDSTSWRNAIRLLASGAIKVKPMITHRIGLSQWREGFDAMVDKTAIKVIMTYDFDE
- total protein half-life in vivo [12]: 4.04 h
- total protein half-life in vivo [5]: 1.33 h
- total protein half-life in vivo [6]: 2.23 h
- total protein half-life in vivo [7]: 3.7 ± 0.86 h
- total protein half-life in vivo [11]: 5.73 h

Sequence: MRVITLAGSPRFPSRSSSLLEYAREKLNGLDVEVYHWNLQNFAPEDLLYARFDSPALKTFTEQLQQADGLIVATPVYKAAYSGALKTLLDLLPERALQGKVVLPLATGGTVAHLLAVDYALKPVLSALKAQEILHGVFADDSQVIDYHHRPQFTPNLQTRLDTALETFWQALHRRDVQVPDLLSLRGNAHA
- total protein half-life in vivo [1]: 4.66 ± 0.17 h
- total protein half-life in vivo [12]: 1.83 h
